Reference: patent publication US20260167721A1 (ABLEXIS, published 2026)
Blank lines part the entries; values can stand above or below the binder they belong to.

Key:
recombinant CD3 proteins [1] = biological target: T1, recombinant CD3 proteins (UniProt P07766 23-126); assay: Octet BLI, recombinant CD3; Full R^2 0.9882
T1 construct: elsewhere it uses human CD3 E/D and E/G heterodimers

recombinant CD3 proteins [2] = biological target: T1, recombinant CD3 proteins; assay: Octet BLI, recombinant CD3; Full R^2 0.9881
recombinant CD3 proteins [3] = biological target: T1, recombinant CD3 proteins; assay: Octet BLI, recombinant CD3; Full R^2 0.987
recombinant CD3 proteins [4] = biological target: T1, recombinant CD3 proteins; assay: Octet BLI, recombinant CD3; Full R^2 0.8253
recombinant CD3 proteins [5] = biological target: T1, recombinant CD3 proteins; assay: Octet BLI, recombinant CD3; Full R^2 0.9778
recombinant CD3 proteins [6] = biological target: T1, recombinant CD3 proteins; assay: Octet BLI, recombinant CD3; Full R^2 0.9897
recombinant CD3 proteins [7] = biological target: T1, recombinant CD3 proteins; assay: Octet BLI, recombinant CD3; Full R^2 0.9905

T1 sequence (P07766 23-126): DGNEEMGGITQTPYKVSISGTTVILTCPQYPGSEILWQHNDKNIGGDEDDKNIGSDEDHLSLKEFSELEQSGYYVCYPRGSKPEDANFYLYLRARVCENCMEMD

Kd (recombinant CD3 proteins [5]): 3.28 nM
koff (recombinant CD3 proteins [5]): 0.00134 s⁻¹
kon (recombinant CD3 proteins [5]): 408000 M⁻¹ s⁻¹
B5: CD3 × CD33-BspAb83 (bispecific antibody)
chain 1: EVQLVESGGGLVKPGGSLRLSCVASGFTFSRYSMNWVRQAPGKCLEWVSSISSSSRYTYYADSLKGRFIMSRDNAKNSLFLQMNSLRAEDTAVYYCARNLYNALDYWGQGTLVTVSSGGGGSGGGGSGGGGSGGGGSFMLTQPHSVSESPGKTVTISCTRSSGSIASNYVQWYQQRPGSSPTTVIYEDNQRPSGVPDRFSGSIDSSSNSASLTISGLQTEDEADYYCQSYDSSNRVFGCGTKLTVLDKTHTCPPCPAPEFEGGPSVFLFPPKPKDTLMISRTPEVTCVVVDVSHEDPEVKFNWYVDGVEVHNAKTKPREEQYNSTYRVVSVLTVLHQDWLNGKEYKCKVSNKALPASIEKTISKAKGQPREPQVYTLPPCREEMTKNQVSLWCLVKGFYPSDIAVEWESNGQPENNYKTTPPVLDSDGSFFLYSKLTVDKSRWQQGNVFSCSVMHEALHNHYTQKSLSLSPGK
chain 2: EVQLVQSGAEVKKPGSSVKVSCKASGYTITDSNIHWVRQAPGQSLEWIGYIYPYNGGTDYNQKFKNRATLTVDNPTNTAYMELSSLRSEDTAFYYCVNGNPWLAYWGQGTLVTVSSASTKGPSVFPLAPSSKSTSGGTAALGCLVKDYFPEPVTVSWNSGALTSGVHTFPAVLQSSGLYSLSSVVTVPSSSLGTQTYICNVNHKPSNTKVDKRVEPKSCDKTHTCPPCPAPEFEGGPSVFLFPPKPKDTLMISRTPEVTCVVVDVSHEDPEVKFNWYVDGVEVHNAKTKPREEQYNSTYRVVSVLTVLHQDWLNGKEYKCKVSNKALPASIEKTISKAKGQPREPQVCTLPPSREEMTKNQVSLSCAVKGFYPSDIAVEWESNGQPENNYKTTPPVLDSDGSFFLVSKLTVDKSRWQQGNVFSCSVMHEALHNRFTQKSLSLSPGK
chain 3: DIQLTQSPSTLSASVGDRVTITCRASESLDNYGIRFLTWFQQKPGKAPKLLMYAASNQGSGVPSRFSGSGSGTEFTLTISSLQPDDFATYYCQQTKEVPWSFGQGTKVEVKRTVAAPSVFIFPPSDEQLKSGTASVVCLLNNFYPREAKVQWKVDNALQSGNSQESVTEQDSKDSTYSLSSTLTLSKADYEKHKVYACEVTHQGLSSPVTKSFNRGEC

Kd (recombinant CD3 proteins [6]): 24.6 nM
koff (recombinant CD3 proteins [6]): 0.00671 s⁻¹
kon (recombinant CD3 proteins [6]): 273000 M⁻¹ s⁻¹
B6: CD3 × CD33-BspAb84 (bispecific antibody)
chain 1: EVQVAESGGGLVKPGGSLRLSCAASGFTFSRYSMNWVRQAPGKCLEWVSSISSSGSYTYYADSVKGRFTISRDNAKNSLYLQMNSLRAEDTAVYYCVRERGKGAGMDVWGQGTTVTVSSGGGGSGGGGSGGGGSGGGGSNFMLTQPHSVSESPGKTVTISCTRSSGSIASNYVQWYQQRPGSSPTTVIYEDNQRPSGVPDRFSGSIDSSSNSASLTISGLKTEDEADYYCQSYDSSNRVFGCGTKLTVLDKTHTCPPCPAPEFEGGPSVFLFPPKPKDTLMISRTPEVTCVVVDVSHEDPEVKFNWYVDGVEVHNAKTKPREEQYNSTYRVVSVLTVLHQDWLNGKEYKCKVSNKALPASIEKTISKAKGQPREPQVYTLPPCREEMTKNQVSLWCLVKGFYPSDIAVEWESNGQPENNYKTTPPVLDSDGSFFLYSKLTVDKSRWQQGNVFSCSVMHEALHNHYTQKSLSLSPGK
chain 2: B5 chain 2
chain 3: B5 chain 3

The next lines start with the binder.

B1: CD3 × CD33-BspAb67 (bispecific antibody)
chain 1: not shown
chain 2: B5 chain 2
chain 3: B5 chain 3
Kd (recombinant CD3 proteins [1]): 5.57 nM
koff (recombinant CD3 proteins [1]): 0.00234 s⁻¹
kon (recombinant CD3 proteins [1]): 421000 M⁻¹ s⁻¹

B2: CD3 × CD33-BspAb81 (bispecific antibody)
chain 1: QVQLQESGPGLVKPSQTLSLTCTVSGGSISSGGYYWSWIRQHPGKCLEWIGYIYYSGSTYYNPSLKSRVTISVDTSKDQFSLKLSSVTAADTAVYYCARERKTSLPFDIWGQGTMVTVSSGGGGSGGGGSGGGGSGGGGSNFMLTQPHSVSESPGKTVTISCTRSSGSIASNYVQWYQQRPGSSPTTVIYEDNQRPSGVPDRFSGSIDSSSNSASLTISGLKTEDEAYYYCQSFDSSNRVFGCGTKLTVLDKTHTCPPCPAPEFEGGPSVFLFPPKPKDTLMISRTPEVTCVVVDVSHEDPEVKFNWYVDGVEVHNAKTKPREEQYNSTYRVVSVLTVLHQDWLNGKEYKCKVSNKALPASIEKTISKAKGQPREPQVYTLPPCREEMTKNQVSLWCLVKGFYPSDIAVEWESNGQPENNYKTTPPVLDSDGSFFLYSKLTVDKSRWQQGNVFSCSVMHEALHNHYTQKSLSLSPGK
chain 2: B5 chain 2
chain 3: B5 chain 3
Kd (recombinant CD3 proteins [2]): 69.4 nM
koff (recombinant CD3 proteins [2]): 0.00791 s⁻¹
kon (recombinant CD3 proteins [2]): 114000 M⁻¹ s⁻¹

B3: CD3 × CD33-BspAb82 (bispecific antibody)
chain 1: EVQLVESGGGLVKPGGSLRLSCAASGLTFSTYSMNWVRQAPGKCLEWVSSISSSGSYVYYADSVKGRFTMSRDNAKNSLYLQMNSLRAEDTAVYYCARERRELLFDYWGQGTLVTVSSGGGGSGGGGSGGGGSGGGGSNFMLTQPHSVSESPGKTVTISCTRSSGSIASNYVQWYQQRPGSSPTSVIYEDNQRPSGVPDRFSGSIDSSSNSASLTISGLKTEDEADYYCQSYDRSNRVFGCGTKLTVLDKTHTCPPCPAPEFEGGPSVFLFPPKPKDTLMISRTPEVTCVVVDVSHEDPEVKFNWYVDGVEVHNAKTKPREEQYNSTYRVVSVLTVLHQDWLNGKEYKCKVSNKALPASIEKTISKAKGQPREPQVYTLPPCREEMTKNQVSLWCLVKGFYPSDIAVEWESNGQPENNYKTTPPVLDSDGSFFLYSKLTVDKSRWQQGNVFSCSVMHEALHNHYTQKSLSLSPGK
chain 2: B5 chain 2
chain 3: B5 chain 3
Kd (recombinant CD3 proteins [3]): 18.7 nM
koff (recombinant CD3 proteins [3]): 0.00536 s⁻¹
kon (recombinant CD3 proteins [3]): 287000 M⁻¹ s⁻¹

B4: CD3 × CD33-BspAb70 (bispecific antibody)
chain 1: EVQLVESGGGLVKPGGSLRLSCAASGFTFSSYSMKWVRQAPGKCLEWVSSISSSSSYIYYADSVKGRFTISRDNAKNSLYLQMNSLRAEDTAVYYCARDRGELTLWYWGQGTLVTVSSGGGGSGGGGSGGGGSGGGGSSYELTQPPSVSVSPGQTARITCSGDALPKKYAYWYQQKSGQAPVLVIYEDSKRPSGIPERFSGSSSGTMATLTISGAQVEDEADYYCYSTDSSGNHWVFGCGTKLTVLDKTHTCPPCPAPEFEGGPSVFLFPPKPKDTLMISRTPEVTCVVVDVSHEDPEVKFNWYVDGVEVHNAKTKPREEQYNSTYRVVSVLTVLHQDWLNGKEYKCKVSNKALPASIEKTISKAKGQPREPQVYTLPPCREEMTKNQVSLWCLVKGFYPSDIAVEWESNGQPENNYKTTPPVLDSDGSFFLYSKLTVDKSRWQQGNVFSCSVMHEALHNHYTQKSLSLSPGK
chain 2: B5 chain 2
chain 3: B5 chain 3
Kd (recombinant CD3 proteins [4]): 9.11 nM
koff (recombinant CD3 proteins [4]): 0.00554 s⁻¹
kon (recombinant CD3 proteins [4]): 609000 M⁻¹ s⁻¹

B7: CD3 × CD33-BspAb80 (bispecific antibody)
chain 1: QVQLQESGPGLVKPSETLSLTCTVSGGSISSYYWSWIRQPAGKCLEWIGRIYTSGSTKYNPSLKSRVTMSVDTSKNQFSLKLISVTAADTAVYFCARERIRDLYFDYWGQGTLVTVSSGGGGSGGGGSGGGGSGGGGSNFMLTQPHSVSESPGKTVTISCTRTSGSIASNYVQWYQQRPGSSPTTVIYEDNQRPSGVPDRFSGSIDSSSNSASLTISGLKTEDEAAYYCQSYDRSNRVFGCGTKLTVLDKTHTCPPCPAPEFEGGPSVFLFPPKPKDTLMISRTPEVTCVVVDVSHEDPEVKFNWYVDGVEVHNAKTKPREEQYNSTYRVVSVLTVLHQDWLNGKEYKCKVSNKALPASIEKTISKAKGQPREPQVYTLPPCREEMTKNQVSLWCLVKGFYPSDIAVEWESNGQPENNYKTTPPVLDSDGSFFLYSKLTVDKSRWQQGNVFSCSVMHEALHNHYTQKSLSLSPGK
chain 2: B5 chain 2
chain 3: B5 chain 3
Kd (recombinant CD3 proteins [7]): 6.06 nM
koff (recombinant CD3 proteins [7]): 0.00186 s⁻¹
kon (recombinant CD3 proteins [7]): 308000 M⁻¹ s⁻¹
